# Assay results: IntAct's records for PubMed 18940604
# B1: Ras-related protein Rab-27A (Mus musculus), Q9ERI2 (parent)
# chain: MSDGDYDYLIKFLALGDSGVGKTSVLYQYTDGKFNSKFITTVGIDFREKRVVYRANGPDGAVGRGQRIHLQLWDTAGQERFRSLTTAFFRDAMGFLLLFDLTNEQSFLNVRNWISQLQMHAYCENPDIVLCGNKSDLEDQRAVKEEEARELAEKYGIPYFETSAANGTNISHAIEMLLDLIMKRMERCVDKSWIPEGVVRSNGHTSADQLSEEKEKGLCGC
# partner: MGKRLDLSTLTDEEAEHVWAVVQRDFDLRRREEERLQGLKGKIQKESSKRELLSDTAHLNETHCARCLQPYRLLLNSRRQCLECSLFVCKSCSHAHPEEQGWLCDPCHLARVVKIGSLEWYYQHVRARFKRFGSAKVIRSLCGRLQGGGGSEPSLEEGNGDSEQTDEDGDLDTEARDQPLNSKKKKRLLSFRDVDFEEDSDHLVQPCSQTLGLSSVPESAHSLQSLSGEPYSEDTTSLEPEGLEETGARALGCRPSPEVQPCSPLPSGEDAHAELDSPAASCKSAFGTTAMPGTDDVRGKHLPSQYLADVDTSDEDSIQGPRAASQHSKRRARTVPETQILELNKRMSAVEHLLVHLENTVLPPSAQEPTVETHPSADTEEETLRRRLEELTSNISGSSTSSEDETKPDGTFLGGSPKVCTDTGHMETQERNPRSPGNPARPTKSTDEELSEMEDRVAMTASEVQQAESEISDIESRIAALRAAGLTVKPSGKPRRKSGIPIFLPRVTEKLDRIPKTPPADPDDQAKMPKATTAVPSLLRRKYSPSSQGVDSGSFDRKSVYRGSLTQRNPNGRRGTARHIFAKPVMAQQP
# B2: Ras-related protein Rab-3A (Mus musculus), P63011 (parent)
# chain: MASATDSRYGQKESSDQNFDYMFKILIIGNSSVGKTSFLFRYADDSFTPAFVSTVGIDFKVKTIYRNDKRIKLQIWDTAGQERYRTITTAYYRGAMGFILMYDITNEESFNAVQDWSTQIKTYSWDNAQVLLVGNKCDMEDERVVSSERGRQLADHLGFEFFEASAKDNINVKQTFERLVDVICEKMSESLDTADPAVTGAKQGPQLTDQQAPPHQDCAC
# partner: B1 partner
# Variants of: B1
# Conditions: with melph_mouse Mlph
row,effect of a mutation on the interaction,Variant
1,disrupting interaction,Y6F;L84I;F88Y;D91G
2,disrupting interaction,Y6F

# Variants of: B2
# Conditions: with melph_mouse Mlph
row,Variant,effect of a mutation on the interaction
1,F19Y;G94D,disrupting interaction
2,I87L;Y91F;G94D,disrupting interaction

# Continued, values first:
row,effect of a mutation on the interaction,Variant
1,disrupting interaction,F19Y
2,disrupting interaction,G94D
